The text below walks through data of patent US20220281942A1 (published 2022).

The target of the experiment is T1, CCND1 (G1/S-specific cyclin-D1) peptide on HLA-DPA1*01:03 / HLA-DPB1*04:01 (human).
T1 peptide: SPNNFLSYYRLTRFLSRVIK
Put plainly: multimer staining.

B1: 03-CCND1219-238 (TCR, V domains shown)
Valpha: KDQVFQPSTVASSEGAVVEIFCNHSVSNAYNFFWYLHFPGCAPRLLVKGSKPSQQGRYNMTYERFSSSLLILQVREADAAVYYCAVCTLYNFNKFYFGSGTKLNVKP
Vbeta: GVTQTPKFQVLKTGQSMTLQCAQDMNHEYMSWYRQDPGMGLRLIHYSVGAGITDQGEVPNGYNVSRSTTEDFPLRLLSAAPSQTSVYFCASLTDNNEQFFGPGTRLTVL
With B1, the binding result is reported as “recognises”.
